This note sets out measurements from US20180244762A1 (KODIAK SCIENCES, published 2018).

What is called Kd is the constant that tells how readily two partners part at equilibrium. The term IC50 denotes the point on the concentration scale where inhibition reaches its midpoint. The koff is the first-order rate constant of dissociation. For orientation: kon means the rate constant with which the complex forms. A word on the t½: it is how long it takes for the measured level to halve.

The target of assay [1] is T1, recombinant human PDGF-BB (human, UniProt P01127 82-190).
T1 construct: also called rhPDGF-BB; rhPDGFBB
T1 sequence (P01127 82-190): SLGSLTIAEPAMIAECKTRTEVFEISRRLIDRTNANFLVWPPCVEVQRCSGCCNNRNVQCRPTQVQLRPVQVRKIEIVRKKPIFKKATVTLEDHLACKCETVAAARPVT
Description: optical biosensor (Proteon XPR36 / Biacore 2000), binder amine-coupled, rhPDGF-BB injected, 25 C. On the procedure: Binding studies were performed at 25° C. and 37° C. using BioRad Proteon XPR36 and Biacore 2000 optical biosensors equipped with GLM (Proteon) and CM4 (Biacore) sensor chips and equilibrated with running buffer (10 m/M HEPES, 150 mM NaCl, 0.005% Teen-20, 0.2 mg/ml BSA).
On the technique in general: Surface plasmon resonance follows binding to a sensor surface in real time, without labels.

The target in assay [2] is T1, recombinant human PDGF-BB. Description: competitive ELISA: OG1448 preincubated with 0.2 nM PDGF-BB plus rhVEGFA-165 at 0.2, 0.6 and 1.0 nM, competitor immobilized PDGFRb/Fc; in the presence of rhVEGFA-165 (0.2, 0.6 and 1.0 nM).
Assay [3] concerns the target T1, recombinant human PDGF-BB. Description: cell-based or functional assay.
Assay [4] concerns the target T1, recombinant human PDGF-BB. Description: competitive ELISA: binder preincubated with 0.2 nM rhPDGF-BB, competitor immobilized PDGFR/Fc. (ELISA stands for enzyme-linked immunosorbent assay.)
Assay [5] has as its target T1, recombinant human PDGF-BB. Description: SPR (Biacore T200, 25 C), binder captured by anti-human IgG, PDGF-BB as analyte, run C. On the procedure:
(§1) Each PDGF/VEGF variant was captured to a level of approximately 150 RUs. The running and sample buffer for the PDGF analysis was HBS-EP+300mM NaCl (10 mM 4-(2-hydroxyethyl)-1-piperazineethanesulfonic acid (HEPES) pH 7.4, 300 mM NaCl, 3mM ethylenediaminetetraacetic acid (EDTA), 0.05% (v/v) Tween-20). […] The surface was then regenerated with a 30 second pulse of 3M MgCl₂, a 30 second pulse of an ionic regeneration buffer (0.46M KSCN, 1.83 M MgCl2, 0.92 M urea, and 1.83 M guanidine-HCI pH7.4, Andersson et al., Analytical Chemistry, 1999) and then equilibrated with a 30 second pulse of HBS-EP+ 300 mM NaCl running buffer.
(§2) All SPR assays were performed at 25° C. with a data collection rate of1Hz using a Biacore T200 instrument (GE Healthcare). The resulting PDGP and VEGP sensorgrams were double referenced using both a control surface and buffer injections. The rate constants were determined by fitting the data to a 1:1 Langmuir model with Biacore T200 evaluation software v2.0 and the equation […].

Assay [6] has as its target T1, recombinant human PDGF-BB. Description: SPR (Biacore T200, 25 C), binder captured by anti-human IgG, PDGF-BB as analyte, run B. On the procedure: as §1, §2
For assay [7], the target named is T1, recombinant human PDGF-BB. Description: SPR (Biacore T200, 25 C), binder captured by anti-human IgG, PDGF-BB as analyte, run A. The procedure:
as §1, §2

Assay [8] has as its target T1, recombinant human PDGF-BB. Description: SPR (Biacore T200, 25 C), binder captured by anti-human IgG, PDGF-BB as analyte, average of the runs. The procedure:
as §1, §2

B1: OG1448 (TAF443 conjugated to the OG1802 biopolymer) (other)
heavy: LVVTPPGPELVLNVSSTFVLTCSGSAPVVWERMSQEPPQEMAKAQDGTFSSVLTLTNLTGLDTGEYFCTHNDSRGLETDERKRLYIFVPDPTVGFLPNDAEELFIFLTEITEITIPCRVTDPQLVVTLHEKKGDVALPVPYDHQRGFSGIFEDRSYICKTTIGDREVDSDAYYVYRLQVSSINVSVNAVQTVVRQGENITLMCIVIGNEVVNFEWTYPRKESGRLVEPVTDFLLDMPYHIRSILHIPSAELEDSGTYTCNVTESVNDHQDEKAINITVVESGGGGGSGGGGSEVQLVESGGGLVQPGGSLRLSCAASGYDFTHYGMNWVRQAPGKGLEWVGWINTYTGEPTYAADFKRRFTFSLDTSKSTAYLQMNSLRAEDTAVYYCAKYPYYYGTSHWYFDVWGQGTLVTVSSASTKGPSVFPLAPSSKSTSGGTAALGCLVKDYFPEPVTVSWNSGALTSGVHTFPAVLQSSGLYSLSSVVTVPSSSLGTQTYICNVNHKPSNTKVDKKVEPKSCDKTHTCPPCPAPEAAGAPSVFLFPPKPKDTLMISRTPEVTCVVVDVSHEDPEVKFNWYVDGVEVHNAKTKPREEQYNSTYRVVSVLTVLHQDWLNGKEYKCKVSNKALPAPIEKTISKAKGQPREPQVYTLPPSREEMTKNQVSLTCLVKGFYPSDIAVEWESNGQPENNYKTTPPVLDSDGSFFLYSKLTVDKSRWQQGNVFSCSVMHEALHNHYTQKSLSCSPGK
light: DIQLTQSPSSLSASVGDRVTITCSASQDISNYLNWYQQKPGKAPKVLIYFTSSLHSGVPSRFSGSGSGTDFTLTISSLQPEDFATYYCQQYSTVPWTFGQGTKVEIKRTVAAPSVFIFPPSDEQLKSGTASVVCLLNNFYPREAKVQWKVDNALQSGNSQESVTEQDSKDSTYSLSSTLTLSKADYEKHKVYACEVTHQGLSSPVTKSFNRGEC
modifications: OG1802 biopolymer (about 750 kDa, 9-arm HEMA-PC, maleimide) on the cysteine 443 residue (L443C, EU numbering)
notes: also called TAF443 polymer conjugate
With B1, in assay [1], the Kd amounted to 17 pM. Further, the IC50 in assay [2] turned out to be 25 pM; in assay [4] it was 54 pM. In addition, the “Inhibition of PDGF induced proliferation of HPVPs, IC50” value in assay [3] came to 2900 pM.

B2: TAF443-3A250K (other)
heavy: LVVTPPGPELVLNVSSTFVLTCSGSAPVVWERMSQEPPQEMAKAQDGTFSSVLTLTNLTGLDTGEYFCTHNDSRGLETDERKRLYIFVPDPTVGFLPNDAEELFIFLTEITEITIPCRVTDPQLVVTLHEKKGDVALPVPYDHQRGFSGIFEDRSYICKTTIGDREVDSDAYYVYRLQVSSINVSVNAVQTVVRQGENITLMCIVIGNEVVNFEWTYPRKESGRLVEPVTDFLLDMPYHIRSILHIPSAELEDSGTYTCNVTESVNDHQDEKAINITVVESGGGGGSGGGGSEVQLVESGGGLVQPGGSLRLSCAASGYDFTHYGMNWVRQAPGKGLEWVGWINTYTGEPTYAADFKRRFTFSLDTSKSTAYLQMNSLRAEDTAVYYCAKYPYYYGTSHWYFDVWGQGTLVTVSSASTKGPSVFPLAPSSKSTSGGTAALGCLVKDYFPEPVTVSWNSGALTSGVHTFPAVLQSSGLYSLSSVVTVPSSSLGTQTYICNVNHKPSNTKVDKKVEPKSCDKTHTCPPCPAPEAAGAPSVFLFPPKPKDTLMISRTPEVTCVVVDVSHEDPEVKFNWYVDGVEVHNAKTKPREEQYNSTYRVVSVLTVLHQDWLNGKEYKCKVSNKALPAPIEKTISKAKGQPREPQVYTLPPSREEMTKNQVSLTCLVKGFYPSDIAVEWESNGQPENNYKTTPPVLDSDGSFFLYSKLTVDKSRWQQGNVFSCSVMHEALHNHYTQKSLSCSPGK
light: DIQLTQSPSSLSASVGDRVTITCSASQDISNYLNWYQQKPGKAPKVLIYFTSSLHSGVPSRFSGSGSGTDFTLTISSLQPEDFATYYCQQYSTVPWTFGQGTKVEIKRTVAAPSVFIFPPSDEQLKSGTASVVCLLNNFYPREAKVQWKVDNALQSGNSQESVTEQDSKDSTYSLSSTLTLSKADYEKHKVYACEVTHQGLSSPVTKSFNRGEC
modifications: polymer conjugate, label 3A250K; polymer and attachment site not described for this conjugate
notes: also called R3644-3A
In the case of B2, in assay [5], the Kd was 1.6 pM, the koff was 7.52e-05 s⁻¹, the kon was 4.71e+07 M⁻¹ s⁻¹ and the t½ was 2.56 h. Moreover, in assay [6], the Kd came out at 1.73 pM, the koff worked out at 4.96e-05 s⁻¹, the kon was found to be 2.86e+07 M⁻¹ s⁻¹ and the t½ stood at 3.88 h. In assay [7], the dissociation constant (Kd) worked out at 1.03 pM, the koff was 5.92e-05 s⁻¹, the kon was found to be 5.76e+07 M⁻¹ s⁻¹ and the t½ was 3.25 h. The Kd in assay [8] was found to be 1.5 pM.
